Consider 2 substances from paper PMC8485325, “Penetrating the Blood-Brain Barrier with New Peptide–Porphyrin Conjugates Having anti-HIV Activity” (Bioconjugate Chemistry, 2021).

Ends that are not written are not given here.

One series concerns bEnd.3 cells. Put plainly: Cell viability assay (CellTiter-Blue). It is filed as cell-based, murine. How it is done: bEnd.3 cells were plated in fibronectin precoated 96-well flat-bottom clear black polystyrene plate (Corning, New York, USA) as previously described. Cells were then cultured in complete medium at 37 °C in a 5% CO2 atmosphere, with medium replaced every 2 days. […] Viability was evaluated by the CellTiter-Blue assay (Promega, Wisconsin, USA), based on resazurin reduction into highly fluorescent resorufin by metabolically active cells. By distinguishing metabolic from nonmetabolic cells, cytotoxicity can be indirectly determined. After incubation, cells were washed with PBS, pH 7.4, and 15 μL of CellTiterBlue reagent in 100 μL of complete medium was added to the cells and incubated for 1.5 h at 37 °C in 5% CO2. Fluorescence was measured at 590 nm, with excitation at 560 nm, using an Infinite F200 plate reader (Tecan, Switzerland). Complete medium and medium containing 0.25% Triton X-100 were used as positive and negative controls (100% and 0% viability), respectively. Cell viability (%) was determined using the following equation: [drawing 5] 5 where […] is the fluorescence emission of conjugate-treated cells, Fnontreated is the fluorescence emission of the control nontreated cells, and Fblank is the fluorescent emission of CellTiter reagent in complete medium without cells.
Background: The colour change of resazurin is a common sign of viable cells or microbes.

The test system of the next series is bEnd.3 cell monolayers. Put plainly: In vitro BBB translocation assay (bEnd.3 transwell model). The text has this: Assessment of PPC efficacy in BBB translocation was done in a transwell setup (Figure 4A) using bEnd.3 cell monolayers.[44] The bEnd.3 in vitro BBB model consists of a monolayer of cells expressing a range of essential BBB transporters, also bearing the low permeability characteristic of the BBB, suitable for this study.[44]−[46]
Figure 4 PPCs translocation across a bEnd.3 in vitro BBB model. (A) bEnd.3 in vitro BBB model transwell system. The insert, or apex, corresponds to the blood side, while the base (bottom chamber) corresponds to the brain side. (B) After formation of a monolayer, 10 μM of each conjugate was added to the apical side of the tissue culture inserts. After incubation for 24 h, samples from the basolateral side were collected, and the percentage of translocation of each conjugate (black) was calculated. FD4 permeability (gray) was measured to determine monolayer integrity post-PPCs translocation.
An in vitro BBB model consisting of endothelial cells growing on the apical side of a porous membrane was used.[46] bEnd.3 cells (ATTCC-CRL2299) were cultured as a monolayer on T-flasks in DMEM supplemented with 10% fetal bovine serum (FBS), 1% penicillin/streptomycin. Cells were grown in a humidified atmosphere of 5% CO2 at 37 °C (MCO-18AIC (UV), Sanyo, Japan) with the medium changed every other day. Cells were allowed to grow until confluence in a culture T-flask, and then carefully harvested with trypsin-EDTA and seeded (3500 cells/well) onto fibronectin-coated tissue culture 24-well inserts (transparent polyester membrane with 1.0 μm pores) (BD Falcon, USA). The medium was changed every other day for 10 days, after which cells were washed twice with 1× PBS and once with DMEM medium without phenol red. Next, conjugates diluted in DMEM without phenol red to a final concentration of 10 μM were added to the apical side of the in vitro BBB model (Figure 4A). Experiments were performed on different days using independently grown cell cultures.
The translocation of conjugates was determined by fluorescence intensity (λexc = 380 nm and λem = 625 nm for MP conjugates, and λexc = 380 nm and λem = 675 nm for PP conjugates). P3-CF and P5-CF, peptides labeled with 5(6)-Carboxyfluorescein (CF), were used as positive translocation controls (λexc = 492 nm and λem = 517 nm). After 24 h incubation, samples from the apical and basolateral side were collected and analyzed. Fluorescence was measured using a Varioskan Lux plate reader (Thermo Scientific, MA, USA). The percentage (%) of translocation was calculated using the following equation: [drawing 1] 1 where Fi is the recovered fluorescence intensity, Fcells is the recovered fluorescence intensity from cells without the conjugate, and Fconjugate is the fluorescence intensity of total peptide initially added to the transwell apical side.

For “P4-MP: mesoporphyrin IX coupled to the C-terminal Lys side chain of peptide P4 (AGILKRWK-amide) (AGILKRWK(mesoporphyrin IX)-NH2)”, the CC50 (commonly the concentration that lowers cell viability or growth by half) with bEnd.3 cells was greater than 50 µM. Moreover, the “BBB translocation (in words)” value in the series on bEnd.3 cell monolayers is “able to effectively pass the BBB”.
The like results for “MP-P5: mesoporphyrin IX coupled to the N-terminal amino group of peptide P5 (SGTQEEY-amide) ({mesoporphyrin IX}-SGTQEEY-NH2)” were, in that order, greater than 50 µM and “able to effectively pass the BBB”.
